The values below come from the supplement of paper PMC7877785.

The nature of this data set: self-splicing fitness, log relative to wild type (ln ratio); higher = more splicing; Tetrahymena group I intron in knt gene, E. coli kanamycin selection, DiMSum; sequences stand for … in CUCUCU…GGAGGGAAAAGUUAUCAGGCAUGCACCUGGUAGCUAGUCUUUAAACCAAUAGAUUGCAUCGGUUUAAAAGGCAAGACCGUCAAAUUGCGGGAAAGGGGUCAACAGCCGUUCAGUACCAAGUCUCAGGGGAAACUUUGAGAUGGCCUUGCAAAGGGUAUGGUAAUAAGCUGACGGACAUGGUCCUAACCACGCAGCCAAGUCCUAAGUCAACAGAUCUUCUGUUGAUAUGGAUGCAGUUCACAGACUAAAUGUCGGUCGGGGAAGAUGUAUUCUUCUCAUAAGAUAUAGUCGGACCUCUCCUUAAUGGGAGCUAGCGGAUGAAGUGAUGCAACACUGGAGCCGCUGGGAACUAAUUUGUAUGCGAAAGUAUAUUGAUUAGUUUUGGAGUACUCGUGGUCG
Put shortly:
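Pooled colonies went to amplicon sequencing on an Illumina HiSeq 2500 after six replicate transformations. The plates were LB agar with 100 μg/mL carbenicillin, 50 μM IPTG and 0.2% rhamnose, with or without 25 μg/mL kanamycin, incubated overnight at 37°C or 30°C. The E. coli BL21(DE3) library had all eight P1ex-region intron nucleotides randomised, the intron placed in the knt kanamycin-resistance gene on pET-22b(+). DiMSum fitness is the error-weighted combination of replicate fold changes, kanamycin against none, normalised to wild type.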

± gives the uncertainty stated by the source.

For CUUAAGCAAUAUUACGGAAG, the “self-splicing fitness (ln)” value runs as follows: (30 °C) -2.03 ± 0.17; (37 °C) -0.419 ± 0.14.

As for CUUAAGCAAUAUUACGGAAU, the “self-splicing fitness (ln)” value is, setting by setting: (30 °C) -3.96 ± 0.31; (37 °C) -2.29 ± 0.31.

Consider CUUAAGCAAUAUUACGGAUU, for which the “self-splicing fitness (ln)” value was -3.94 ± 0.32 (30 °C) and -3.41 ± 0.47 (37 °C). As for CUUAAGCAAUAUUACGGCCC, the “self-splicing fitness (ln)” value (30 °C) is -2.8 ± 0.4. As to CUUAAGCAAUAUUACGGGGG, the “self-splicing fitness (ln)” value was -3.65 ± 0.2 (30 °C) and -1.26 ± 0.23 (37 °C). As for CUUAAGCAAUAUUACGGGUU, the “self-splicing fitness (ln)” value runs as follows: (30 °C) -2.65 ± 0.19; (37 °C) -3.2 ± 0.27.

Regarding CUUAAGCAAUAUUACGGUAA, where the note is “37 °C”, the “self-splicing fitness (ln)” value was -3.38 ± 0.37.

In the case of CUUAAGCAAUAUUACGGUAU, the “self-splicing fitness (ln)” value is, setting by setting: (30 °C) -4.7 ± 0.34; (37 °C) -2.35 ± 0.22. In the case of CUUAAGCAAUAUUACGUAAC, the “self-splicing fitness (ln)” value (30 °C) was -3.05 ± 0.24 and the “self-splicing fitness (ln)” value (37 °C) is -1.26 ± 0.2. The corresponding values for CUUAAGCAAUAUUACGUAGA are -3.6 ± 0.22 and -2.82 ± 0.34. With CUUAAGCAAUAUUACGUAGC, under “30 °C”, the “self-splicing fitness (ln)” value was -3.71 ± 0.23.

For the sequence CUUAAGCAAUAUUACGUGAC, the “self-splicing fitness (ln)” value reads like this: (30 °C) -1.91 ± 0.13; (37 °C) -2.06 ± 0.14. In the same order, the values of CUUAAGCAAUAUUACGUGCC are -4.6 ± 0.38 and -1.53 ± 0.18. Consider CUUCAGCAAUAUUACGAACA, for which the “self-splicing fitness (ln)” value was -0.812 ± 0.18 (30 °C) and -1.3 ± 0.21 (37 °C).

In the case of CUUCAGCAAUAUUACGAAUG, the “self-splicing fitness (ln)” value was -0.722 ± 0.065 (30 °C) and -0.456 ± 0.093 (37 °C). In the same order, the values of CUUCAGCAAUAUUACGACGC are -0.697 ± 0.26 and 0.21 ± 0.28. In the same order, the values of CUUCAGCAAUAUUACGAGCU are -3.82 ± 0.29 and -3.41 ± 0.33. As to CUUCAGCAAUAUUACGAGUC, the “self-splicing fitness (ln)” value (37 °C) is -2.56 ± 0.18. CUUCAGCAAUAUUACGAUGU: the “self-splicing fitness (ln)” value by setting is: (30 °C) -3.67 ± 0.21; (37 °C) -2.07 ± 0.2. The corresponding values for CUUCAGCAAUAUUACGCGAC are -2.88 ± 0.31 and -1.75 ± 0.41.

CUUCAGCAAUAUUACGCGGG: the “self-splicing fitness (ln)” value is -3.7 ± 0.19 (30 °C) and -2.61 ± 0.2 (37 °C). In the same order, the values of CUUCAGCAAUAUUACGGAAC are -2.45 ± 0.16 and -2.12 ± 0.33. In the same order, the values of CUUCAGCAAUAUUACGGCGG are -2.02 ± 0.27 and -1.25 ± 0.18.

As for CUUCAGCAAUAUUACGGGCC, for the setting “30 °C”, the “self-splicing fitness (ln)” value is -1.78 ± 0.22. Take CUUCAGCAAUAUUACGGGCG: the “self-splicing fitness (ln)” value is, setting by setting: (30 °C) -0.584 ± 0.076; (37 °C) -0.302 ± 0.098.

CUUCAGCAAUAUUACGGUGU: the “self-splicing fitness (ln)” value reads like this: (30 °C) -4.48 ± 0.21; (37 °C) -3.73 ± 0.25. On to CUUCAGCAAUAUUACGUAUU, for which the “self-splicing fitness (ln)” value reads like this: (30 °C) -3.18 ± 0.17; (37 °C) -2.37 ± 0.2.

For the sequence CUUCAGCAAUAUUACGUCAG, the “self-splicing fitness (ln)” value reads like this: (30 °C) -0.735 ± 0.054; (37 °C) -0.0836 ± 0.082. Regarding CUUCAGCAAUAUUACGUCAU, the “self-splicing fitness (ln)” value is -3.34 ± 0.21 (30 °C) and -3.76 ± 0.34 (37 °C). The corresponding values for CUUCAGCAAUAUUACGUGUU are -3.34 ± 0.19 and -2.72 ± 0.24.

On to CUUCAGCAAUAUUACGUUCU, for which the “self-splicing fitness (ln)” value was -4.03 ± 0.33 (30 °C) and -2.26 ± 0.2 (37 °C). In the same order, the values of CUUGAGCAAUAUUACGACAU are -3.581 ± 0.028 and -2.55 ± 0.041. In the same order, the values of CUUGAGCAAUAUUACGAGCG are -2.14 ± 0.1 and -0.889 ± 0.09. The corresponding values for CUUGAGCAAUAUUACGAGGC are -2.91 ± 0.26 and -2.89 ± 0.27.

Consider CUUGAGCAAUAUUACGAGUA, for which the “self-splicing fitness (ln)” value is -2.07 ± 0.37 (30 °C) and -2.52 ± 0.32 (37 °C). The corresponding values for CUUGAGCAAUAUUACGCACG are -3.3 ± 0.44 and -2.48 ± 0.43. As for CUUGAGCAAUAUUACGCAUC, the “self-splicing fitness (ln)” value runs as follows: (30 °C) -3.14 ± 0.4; (37 °C) -2.75 ± 0.44.

Consider CUUGAGCAAUAUUACGCCCG, for which the “self-splicing fitness (ln)” value (30 °C) is -2.41 ± 0.46. Consider CUUGAGCAAUAUUACGCGCG, for which the “self-splicing fitness (ln)” value (30 °C) is -3.32 ± 0.29 and the “self-splicing fitness (ln)” value (37 °C) was -1.63 ± 0.25. Take CUUGAGCAAUAUUACGCUGA: the “self-splicing fitness (ln)” value by setting is: (30 °C) -2.33 ± 0.25; (37 °C) -1.9 ± 0.23. As for CUUGAGCAAUAUUACGGCUC, the “self-splicing fitness (ln)” value (37 °C) was -1.67 ± 0.36. On to CUUGAGCAAUAUUACGGCUG, for which the “self-splicing fitness (ln)” value is, setting by setting: (30 °C) -1.55 ± 0.14; (37 °C) -1.46 ± 0.19. Take CUUGAGCAAUAUUACGGGAU: the “self-splicing fitness (ln)” value is, setting by setting: (30 °C) -2.99 ± 0.32; (37 °C) -2.63 ± 0.31. CUUGAGCAAUAUUACGGGUG: the “self-splicing fitness (ln)” value is, setting by setting: (30 °C) -1.24 ± 0.072; (37 °C) -0.485 ± 0.078.

On to CUUGAGCAAUAUUACGGUGA, for which the “self-splicing fitness (ln)” value by setting is: (30 °C) -3.34 ± 0.27; (37 °C) -2 ± 0.25. CUUGAGCAAUAUUACGUAAA: for the setting “37 °C”, the “self-splicing fitness (ln)” value is -0.936 ± 0.2. CUUGAGCAAUAUUACGUACA: the “self-splicing fitness (ln)” value by setting is: (30 °C) -1.97 ± 0.4; (37 °C) -1.77 ± 0.38. In the same order, the values of CUUGAGCAAUAUUACGUCAC are -3.37 ± 0.23 and -2.73 ± 0.31.

As to CUUGAGCAAUAUUACGUUUA, the “self-splicing fitness (ln)” value is, setting by setting: (30 °C) -3.56 ± 0.26; (37 °C) -2.88 ± 0.28. On to CUUUAGCAAUAUUACGAAGA, for which the “self-splicing fitness (ln)” value (37 °C) was -2.43 ± 0.34.

Regarding CUUUAGCAAUAUUACGAGGC, the “self-splicing fitness (ln)” value (30 °C) was -2.85 ± 0.41 and the “self-splicing fitness (ln)” value (37 °C) is -1.36 ± 0.26. In the same order, the values of CUUUAGCAAUAUUACGAUAC are -3.4 ± 0.39 and -2.42 ± 0.45.

As to CUUUAGCAAUAUUACGCACG, the “self-splicing fitness (ln)” value is -1.41 ± 0.21 (30 °C) and -0.277 ± 0.2 (37 °C). CUUUAGCAAUAUUACGCAGG: the “self-splicing fitness (ln)” value (30 °C) was -2.83 ± 0.39. With CUUUAGCAAUAUUACGCCGA, the “self-splicing fitness (ln)” value is, setting by setting: (30 °C) -2.8 ± 0.48; (37 °C) -2.32 ± 0.39. The corresponding values for CUUUAGCAAUAUUACGCGGU are -2.14 ± 0.19 and -0.796 ± 0.22.

Take CUUUAGCAAUAUUACGCGUC: the “self-splicing fitness (ln)” value runs as follows: (30 °C) -4.35 ± 0.3; (37 °C) -2.85 ± 0.22. In the same order, the values of CUUUAGCAAUAUUACGCUGC are -3.39 ± 0.38 and 0.317 ± 0.36. As for CUUUAGCAAUAUUACGGCGC, the “self-splicing fitness (ln)” value (30 °C) is -2.73 ± 0.37. Consider CUUUAGCAAUAUUACGGGCC, for which the “self-splicing fitness (ln)” value (30 °C) is -3.32 ± 0.16 and the “self-splicing fitness (ln)” value (37 °C) was -2.64 ± 0.21. The corresponding values for CUUUAGCAAUAUUACGGGUA are -3.97 ± 0.47 and -2.56 ± 0.21. On to CUUUAGCAAUAUUACGGUUA, for which the “self-splicing fitness (ln)” value is -3.31 ± 0.28 (30 °C) and -3.19 ± 0.37 (37 °C). Turning to CUUUAGCAAUAUUACGGUUC, the “self-splicing fitness (ln)” value runs as follows: (30 °C) -3.33 ± 0.3; (37 °C) -2.83 ± 0.29.

In the case of CUUUAGCAAUAUUACGUAAC, for the setting “37 °C”, the “self-splicing fitness (ln)” value was -1.64 ± 0.37. In the case of CUUUAGCAAUAUUACGUAAG, the “self-splicing fitness (ln)” value (30 °C) was -0.953 ± 0.081 and the “self-splicing fitness (ln)” value (37 °C) was -0.626 ± 0.11. For CUUUAGCAAUAUUACGUCAU, the “self-splicing fitness (ln)” value by setting is: (30 °C) -4.6 ± 0.39; (37 °C) -2.13 ± 0.23. The corresponding values for GAAAAGCAAUAUUACGAAGU are -2.98 ± 0.18 and -0.976 ± 0.2. The corresponding values for GAAAAGCAAUAUUACGACCU are -0.497 ± 0.13 and -1.42 ± 0.12. The corresponding values for GAAAAGCAAUAUUACGACGA are -0.234 ± 0.09 and -0.0451 ± 0.096.

Take GAAAAGCAAUAUUACGCAUA: the “self-splicing fitness (ln)” value by setting is: (30 °C) -1.72 ± 0.093; (37 °C) -0.672 ± 0.083. In the same order, the values of GAAAAGCAAUAUUACGCCAG are -2.72 ± 0.21 and -2.28 ± 0.32. In the same order, the values of GAAAAGCAAUAUUACGCGUC are -4.29 ± 0.27 and -2.78 ± 0.24.

On to GAAAAGCAAUAUUACGCUCG, for which the “self-splicing fitness (ln)” value by setting is: (30 °C) -0.762 ± 0.11; (37 °C) -0.303 ± 0.15. In the same order, the values of GAAAAGCAAUAUUACGGAAC are -2.14 ± 0.13 and -1.25 ± 0.15. In the same order, the values of GAAAAGCAAUAUUACGGAAU are -2.81 ± 0.13 and -1.07 ± 0.1. As for GAAAAGCAAUAUUACGGAGG, the “self-splicing fitness (ln)” value reads like this: (30 °C) -2.71 ± 0.14; (37 °C) -1.73 ± 0.18. The corresponding values for GAAAAGCAAUAUUACGGGCG are -1.32 ± 0.071 and -0.282 ± 0.1. On to GAAAAGCAAUAUUACGGGGC, for which the “self-splicing fitness (ln)” value is, setting by setting: (30 °C) -2.89 ± 0.16; (37 °C) -3.46 ± 0.37. As for GAAAAGCAAUAUUACGGUUA, the “self-splicing fitness (ln)” value reads like this: (30 °C) -0.324 ± 0.062; (37 °C) -0.0141 ± 0.067.
